Assay results reported in FireProtDB (doi:10.1016/j.jmb.2009.04.068).

B1: Neurotensin receptor type 1, P20789 (parent)
chain: MHLNSSVPQGTPGEPDAQPFSGPQSEMEATFLALSLSNGSGNTSESDTAGPNSDLDVNTDIYSKVLVTAIYLALFVVGTVGNSVTAFTLARKKSLQSLQSTVHYHLGSLALSDLLILLLAMPVELYNFIWVHHPWAFGDAGCRGYYFLRDACTYATALNVASLSVERYLAICHPFKAKTLMSRSRTKKFISAIWLASALLAIPMLFTMGLQNRSGDGTHPGGLVCTPIVDTATVKVVIQVNTFMSFLFPMLVISILNTVIANKLTVMVHQAAEQGRVCTVGTHNGLEHSTFNMTIEPGRVQALRHGVLVLRAVVIAFVVCWLPYHVRRLMFCYISDEQWTTFLFDFYHYFYMLTNALFYVSSAINPILYNLVSANFRQVFLSTLACLCPGWRHRRKKRPTFSRKPNSMSSNHAFSTSATRETLY

Variants of: B1
Conditions: Rattus norvegicus; pH 7.4; Heat treatment; Activity; Tris-HCl 50 mM; structure 4BUO; whole UniProt chain shown

Variant	Tm [°C]
MHLNSSVPQGTPGEPDAQPFSGPQSEMEATFLALSLSNGSGNTSESDTAGPNSDLDVNTDIYSKVLVTAIYLALFVVGTVGNSVTLFTLARKKSLQSLQSTVHYHLGSLALSDLLILLLAMPVELYNFIWVHHPWAFGDAGCRGYYFLRDACTYATALNVASLSVERYLAICHPFKAKTLMSRSRTKKFISAIWLASALLAIPMLFTMGLQNRSGDGTHPGGLVCTPIVDTATVKVVIQVNTFMSFLFPMLVISILNTVAANKLTVMVHQAAEQGRVCTVGTHNGLEHSTFNMTIEPGRVQALRHGVLVLRAVVIAFVVCWLPYHVRRLMFCYISDEQWTTFLFDFYHYFYMLTNALAYVSSAINPILYNLVSANFRQVFLSTLACLCPGWRHRRKKRPTFSRKPNSMSSNHAFSTSATRETLY [F358A A86L I260A]	49
MHLNSSVPQGTPGEPDAQPFSGPQSEMEATFLALSLSNGSGNTSESDTAGPNSDLDVNTDIYSKVLVTAIYLALFVVGTVGNSVTLFTLARKKSLQSLQSTVHYHLGSLALSDLLILLLAMPVELYNFIWVHHPWAFGDAGCRGYYFLRDACTYATALNVASLSVERYLAICHPFKAKTLMSRSRTKKFISAIWLASALLAIPMLFTMGLQNRSGDGTHPGGLVCTPIVDTATVKVVIQVNTFMSFLFPMLVISILNTVAANKLTVMVHQAAEQGRVCTVGTHNGLEHSTFNMTIEPGRVQALRHGVLVLRAVVIAFVVCWLPYHVRRLMFCYISDEQWTTALFDFYHYFYMLTNALAYVSSAINPILYNLVSANFRQVFLSTLACLCPGWRHRRKKRPTFSRKPNSMSSNHAFSTSATRETLY [A86L I260A F342A F358A]	50
MHLNSSVPQGTPGEPDAQPFSGPQSEMEATFLALSLSNGSGNTSESDTAGPNSDLDVNTDIYSKVLVTAIYLALFVVGTVGNSVTLFTLARKKSLQSLQSTVAYHLGSLALSDLLILLLAMPVELYNFIWVHHPWAFGDAGCRGYYFLRDACTYATALNVASLSVERYLAICHPFKAKTLMSRSRTKKFISAIWLASALLAIPMLFTMGLQNRSGDGTHPGGLVCTPIVDTATVKVVIQVNTFMSFLFPMLVISILNTVAANKLTVMVHQAAEQGRVCTVGTHNGLEHSTFNMTIEPGRVQALRHGVLVLRAVVIAFVVCWLPYHVRRLMFCYISDEQWTTALFDFYHYFYMLTNALAYVSSAINPILYNLVSANFRQVFLSTLACLCPGWRHRRKKRPTFSRKPNSMSSNHAFSTSATRETLY [F358A A86L H103A I260A F342A]	50
MHLNSSVPQGTPGEPDAQPFSGPQSEMEATFLALSLSNGSGNTSESDTAGPNSDLDVNTDIYSKVLVTAIYLALFVVGTVGNSVTAFTLARKKSLQSLQSTVAYHLGSLALSDLLILLLAMPVELYNFIWVHHPWAFGDAGCRGYYFLRDACTYATALNVASLSVERYLAICHPFKAKTLMSRSRTKKFISAIWLASALLAIPMLFTMGLQNRSGDGTHPGGLVCTPIVDTATVKVVIQVNTFMSFLFPMLVISILNTVAANKLTVMVHQAAEQGRVCTVGTHNGLEHSTFNMTIEPGRVQALRHGVLVLRAVVIAFVVCWLPYHVRRLMFCYISDEQWTTALFDFYHYFYMLTNALAYVSSAINPILYNLVSANFRQVFLSTLACLCPGWRHRRKKRPTFSRKPNSMSSNHAFSTSATRETLY [F358A H103A I260A F342A]	50
MHLNSSVPQGTPGEPDAQPFSGPQSEMEATFLALSLSNGSGNTSESDTAGPNSDLDVNTDIYSKVLVTAIYLALFVVGTVGNSVTLFTLARKKSLQSLQSTVHYHLGSLALSDLLILLLAMPVELYNFIWVHHPWAFGDAGCRGYYFLRDACTYATALNVASLSVERYLAICHPFKAKTLMSRSRTKKFISAIWLASALLAIPMLFTMGLQNRSGDGTHPGGLVCTPIVDTATVKVVIQVNTFMSFLFPMLVISILNTVAANKLTVMVHQAAEQGRVCTVGTHNGLEHSTFNMTIEPGRVQALRHGVLVLRAVVIAFVVCWLPYHVRRLMFCYISDEQWTTALFDFYHYFYMLTNALFYVSSAINPILYNLVSANFRQVFLSTLACLCPGWRHRRKKRPTFSRKPNSMSSNHAFSTSATRETLY [A86L I260A F342A]	47
MHLNSSVPQGTPGEPDAQPFSGPQSEMEATFLALSLSNGSGNTSESDTAGPNSDLDVNTDIYSKVLVTAIYLALFVVGTVGNSVTLFTLARKKSLQSLQSTVAYHLGSLALSDLLILLLAMPVELYNFIWVHHPWAFGDAGCRGYYFLRDACTYATALNVASLSVERYLAICHPFKAKTLMSRSRTKKFISAIWLASALLAIPMLFTMGLQNRSGDGTHPGGLVCTPIVDTATVKVVIQVNTFMSFLFPMLVISILNTVIANKLTVMVHQAAEQGRVCTVGTHNGLEHSTFNMTIEPGRVQALRHGVLVLRAVVIAFVVCWLPYHVRRLMFCYISDEQWTTALFDFYHYFYMLTNALAYVSSAINPILYNLVSANFRQVFLSTLACLCPGWRHRRKKRPTFSRKPNSMSSNHAFSTSATRETLY [F358A A86L H103A F342A]	50
MHLNSSVPQGTPGEPDAQPFSGPQSEMEATFLALSLSNGSGNTSESDTAGPNSDLDVNTDIYSKVLVTAIYLALFVVGTVGNSVTLFTLARKKSLQSLQSTVAYHLGSLALSDLLILLLAMPVELYNFIWVHHPWAFGDAGCRGYYFLRDACTYATALNVASLSVERYLAICHPFKAKTLMSRSRTKKFISAIWLASALLAIPMLFTMGLQNRSGDGTHPGGLVCTPIVDTATVKVVIQVNTFMSFLFPMLVISILNTVIANKLTVMVHQAAEQGRVCTVGTHNGLEHSTFNMTIEPGRVQALRHGVLVLRAVVIAFVVCWLPYHVRRLMFCYISDEQWTTFLFDFYHYFYMLTNALAYVSSAINPILYNLVSANFRQVFLSTLACLCPGWRHRRKKRPTFSRKPNSMSSNHAFSTSATRETLY [F358A A86L H103A]	48
MHLNSSVPQGTPGEPDAQPFSGPQSEMEATFLALSLSNGSGNTSESDTAGPNSDLDVNTDIYSKVLVTAIYLALFVVGTVGNSVTLFTLARKKSLQSLQSTVAYHLGSLALSDLLILLLAMPVELYNFIWVHHPWAFGDAGCRGYYFLRDACTYATALNVASLSVERYLAICHPFKAKTLMSRSRTKKFISAIWLASALLAIPMLFTMGLQNRSGDGTHPGGLVCTPIVDTATVKVVIQVNTFMSFLFPMLVISILNTVAANKLTVMVHQAAEQGRVCTVGTHNGLEHSTFNMTIEPGRVQALRHGVLVLRAVVIAFVVCWLPYHVRRLMFCYISDEQWTTFLFDFYHYFYMLTNALAYVSSAINPILYNLVSANFRQVFLSTLACLCPGWRHRRKKRPTFSRKPNSMSSNHAFSTSATRETLY [F358A A86L H103A I260A]	49
